These results are taken from US20140175018A1.

Like-named read-outs stand apart in the source and are kept apart here.

The target of assay [1] is T1, chemokine (C-X-C motif) receptor 1 (CXCR1) (human) (UniProt P25024).
T1 sequence (looked up): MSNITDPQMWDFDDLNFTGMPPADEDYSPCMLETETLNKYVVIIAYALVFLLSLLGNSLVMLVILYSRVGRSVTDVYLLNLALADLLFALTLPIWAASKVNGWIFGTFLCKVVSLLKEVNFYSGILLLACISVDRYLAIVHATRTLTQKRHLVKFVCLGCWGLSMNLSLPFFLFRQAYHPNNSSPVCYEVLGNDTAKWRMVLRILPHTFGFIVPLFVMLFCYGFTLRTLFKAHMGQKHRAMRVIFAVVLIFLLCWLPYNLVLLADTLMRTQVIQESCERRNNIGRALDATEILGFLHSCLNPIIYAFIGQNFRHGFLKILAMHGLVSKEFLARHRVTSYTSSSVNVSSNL
Nature of the assay: cell-based or functional assay.

The target of assay [2] is chemokine (C-X-C motif) receptor 3 (CXCR3) (human) (UniProt P49682). Nature of the assay: cell-based or functional assay.
The target of assay [3] is chemokine (C-C motif) receptor 3 (CCR3) (human) (UniProt P51677). Put plainly: blood passed through chemokine-coupled column; flow cytometry before and after. In general terms: A flow cytometer gives signals particle by particle.
For assay [4] the target is unchanged. Put plainly: blood passed through magnetic column with RANTES-coupled MACS beads; flow cytometry before and after.
For assay [5], the target named is chemokine (C-X-C motif) receptor 4 (CXCR4) (human) (UniProt P61073). Nature of the assay: cell-based or functional assay.
Assay [6] concerns the target T2, chemokine (C-C motif) receptor 4 (CCR4) (human) (UniProt P51679).
T2 sequence (looked up): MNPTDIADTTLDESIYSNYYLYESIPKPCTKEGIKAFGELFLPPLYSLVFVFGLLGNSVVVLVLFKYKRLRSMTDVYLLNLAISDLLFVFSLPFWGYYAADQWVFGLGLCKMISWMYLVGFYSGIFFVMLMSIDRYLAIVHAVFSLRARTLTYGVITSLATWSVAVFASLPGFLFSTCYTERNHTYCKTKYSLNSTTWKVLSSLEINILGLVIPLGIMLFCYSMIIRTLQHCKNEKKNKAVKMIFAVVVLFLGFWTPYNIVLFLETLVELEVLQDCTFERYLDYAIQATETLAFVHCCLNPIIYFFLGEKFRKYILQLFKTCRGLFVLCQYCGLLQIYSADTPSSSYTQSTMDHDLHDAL
Nature of the assay: cell-based or functional assay.

Assay [7] addresses T1, chemokine (C-X-C motif) receptor 1 (CXCR1) (human). Put plainly: cell-based or functional assay. The source holds these as a separate data set.
Assay [8] addresses T3, chemokine (C-C motif) receptor 6 (CCR6) (human) (UniProt P51684).
T3 sequence (looked up): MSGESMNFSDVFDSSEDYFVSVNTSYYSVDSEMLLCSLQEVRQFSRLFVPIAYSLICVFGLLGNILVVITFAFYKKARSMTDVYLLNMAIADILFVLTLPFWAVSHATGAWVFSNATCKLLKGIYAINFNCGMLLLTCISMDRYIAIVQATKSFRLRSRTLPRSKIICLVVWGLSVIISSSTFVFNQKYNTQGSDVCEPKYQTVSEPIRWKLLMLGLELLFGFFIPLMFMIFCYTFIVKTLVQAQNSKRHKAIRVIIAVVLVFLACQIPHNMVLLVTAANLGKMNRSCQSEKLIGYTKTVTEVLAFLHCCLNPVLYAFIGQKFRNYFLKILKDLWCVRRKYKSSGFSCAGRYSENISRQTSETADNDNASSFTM
Nature of the assay: cell-based or functional assay.

Assay [9] concerns the target chemokine (C-C motif) receptor 7 (CCR7) (human) (UniProt P32248). Put plainly: cell-based or functional assay.
Assay [10] concerns the target chemokine (C-C motif) receptor 9 (CCR9) (human) (UniProt P51686). Nature of the assay: cell-based or functional assay.
Assay [11] has the same target. Put plainly: cell-based or functional assay. The source holds these as a separate data set.
Assay [12] deals with chemokine (C-C motif) receptor 3 (CCR3) (human) (UniProt P51677). Nature of the assay: cell-based or functional assay.

chemokine (C-C motif) receptor 3 (CCR3) (human), sequence (P51677 whole entry): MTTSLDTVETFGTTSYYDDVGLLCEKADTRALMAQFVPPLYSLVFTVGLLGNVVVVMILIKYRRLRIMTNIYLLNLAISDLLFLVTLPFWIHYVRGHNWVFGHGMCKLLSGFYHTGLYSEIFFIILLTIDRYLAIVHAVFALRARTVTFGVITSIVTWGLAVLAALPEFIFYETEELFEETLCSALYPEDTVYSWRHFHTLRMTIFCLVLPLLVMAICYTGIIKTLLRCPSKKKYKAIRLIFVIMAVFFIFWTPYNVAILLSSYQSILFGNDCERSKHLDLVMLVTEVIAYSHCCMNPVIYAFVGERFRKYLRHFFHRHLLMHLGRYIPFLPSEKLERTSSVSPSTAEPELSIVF
chemokine (C-C motif) receptor 9 (CCR9) (human), sequence (P51686 whole entry): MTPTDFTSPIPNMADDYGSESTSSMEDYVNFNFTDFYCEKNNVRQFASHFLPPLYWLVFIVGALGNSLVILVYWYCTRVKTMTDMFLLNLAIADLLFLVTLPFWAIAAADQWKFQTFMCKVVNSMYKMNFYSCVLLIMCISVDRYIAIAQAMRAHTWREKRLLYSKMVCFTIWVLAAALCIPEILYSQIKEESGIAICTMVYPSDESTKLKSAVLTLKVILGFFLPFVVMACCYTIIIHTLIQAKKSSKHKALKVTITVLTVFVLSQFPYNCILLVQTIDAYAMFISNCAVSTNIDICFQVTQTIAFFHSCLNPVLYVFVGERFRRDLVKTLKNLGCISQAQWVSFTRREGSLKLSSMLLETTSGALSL
recombinant native IL-8, sequence (P10145 28-99 limits assumed): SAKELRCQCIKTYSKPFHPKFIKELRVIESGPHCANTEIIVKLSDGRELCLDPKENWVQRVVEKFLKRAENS
chemokine (C-X-C motif) receptor 3 (CXCR3) (human), sequence (P49682 whole entry): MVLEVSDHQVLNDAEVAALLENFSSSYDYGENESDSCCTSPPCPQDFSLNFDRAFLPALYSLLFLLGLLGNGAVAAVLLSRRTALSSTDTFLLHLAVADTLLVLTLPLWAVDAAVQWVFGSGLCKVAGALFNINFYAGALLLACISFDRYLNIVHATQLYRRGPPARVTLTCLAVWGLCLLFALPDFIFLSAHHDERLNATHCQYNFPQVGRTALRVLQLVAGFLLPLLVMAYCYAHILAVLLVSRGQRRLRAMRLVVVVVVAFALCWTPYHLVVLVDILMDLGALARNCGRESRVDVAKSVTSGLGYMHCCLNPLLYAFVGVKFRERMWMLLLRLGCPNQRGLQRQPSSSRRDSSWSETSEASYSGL
chemokine (C-X-C motif) receptor 4 (CXCR4) (human), sequence (P61073 whole entry): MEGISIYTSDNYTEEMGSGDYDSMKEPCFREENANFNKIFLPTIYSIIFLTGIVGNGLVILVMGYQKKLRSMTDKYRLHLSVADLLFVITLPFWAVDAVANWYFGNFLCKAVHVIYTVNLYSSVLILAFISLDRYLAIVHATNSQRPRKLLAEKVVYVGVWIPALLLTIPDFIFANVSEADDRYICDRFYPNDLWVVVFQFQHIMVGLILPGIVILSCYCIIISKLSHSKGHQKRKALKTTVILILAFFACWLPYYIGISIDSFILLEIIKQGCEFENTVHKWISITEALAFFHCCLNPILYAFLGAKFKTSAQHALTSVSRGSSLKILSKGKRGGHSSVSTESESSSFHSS
UniProt P10145, sequence (P10145 other isoform, or with tags, fused parts or gaps limits assumed): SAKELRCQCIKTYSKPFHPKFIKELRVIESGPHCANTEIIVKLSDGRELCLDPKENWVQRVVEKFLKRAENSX
UniProt Q92583, sequence (Q92583 other isoform, or with tags, fused parts or gaps limits assumed): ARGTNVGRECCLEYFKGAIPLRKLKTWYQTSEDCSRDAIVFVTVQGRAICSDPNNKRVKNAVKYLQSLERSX
recombinant native MIP-3a, sequence (P78556 27-96 limits assumed): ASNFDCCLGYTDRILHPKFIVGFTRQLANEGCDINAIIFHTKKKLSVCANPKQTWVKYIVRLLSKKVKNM
recombinant native TARC, sequence (Q92583 24-94 limits assumed): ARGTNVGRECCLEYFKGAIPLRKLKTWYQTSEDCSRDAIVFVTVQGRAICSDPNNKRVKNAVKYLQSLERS
chemokine (C-C motif) receptor 7 (CCR7) (human), sequence (P32248 25-378): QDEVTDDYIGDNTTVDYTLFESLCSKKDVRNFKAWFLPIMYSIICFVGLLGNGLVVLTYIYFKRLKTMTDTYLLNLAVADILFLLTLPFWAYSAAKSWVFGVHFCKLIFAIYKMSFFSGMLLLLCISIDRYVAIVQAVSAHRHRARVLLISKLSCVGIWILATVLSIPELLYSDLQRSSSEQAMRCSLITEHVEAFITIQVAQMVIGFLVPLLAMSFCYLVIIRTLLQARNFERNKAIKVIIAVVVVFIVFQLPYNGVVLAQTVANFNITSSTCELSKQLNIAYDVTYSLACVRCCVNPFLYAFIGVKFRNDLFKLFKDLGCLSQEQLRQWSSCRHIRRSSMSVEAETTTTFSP

Turning to “biotinIL-8 (6-78): IL-8 (6-78) derivatised at Lys(78) with PEG-Biotin (from UniProt P10145 28-99) (ligand)”, the EC50 (agonist activity, Aequorin assay) in assay [1] turned out to be 6.1 nM.

Substance “biotinIP-10 (CXCL10): IP-10 derivatised with Biotin at an additional C-terminal Lysine after a PEG spacer (from UniProt P02778 22-98) (ligand)” yielded an EC50 (agonist activity, Aequorin assay) in assay [2] of 8.7 nM.

As for “biotinRANTES (CCL5): RANTES derivatised at Lys(67) with Biotin (from UniProt P13501 24-91) (ligand)”, the percent reduction of chemokine receptor-expressing cells (CCR1, 3 or 5, not told apart) in assay [3] and in assay [4] was 20% throughout.

On to “biotinSDF-1a (CXCL12): SDF-1a derivatised at Lys(64) with Biotin (from UniProt P48061 22-67) (ligand)”, for which the EC50 (agonist activity, Aequorin assay) in [5] worked out at 17.3 nM.

In [6], “biotinTARC (CCL17): TARC derivatised at Lys(72) with PEG-Biotin (from UniProt Q92583 24-94) (ligand)” came in with an EC50 (agonist activity, Aequorin assay) of 3.1 nM.

For “recombinant native IL-8 (from UniProt P10145 28-99) (ligand)”, the EC50 (agonist activity, Aequorin assay) in assay [7] amounted to 4.1 nM; in assay [1], 4.2 nM.

The substance “recombinant native IP-10 (from UniProt P02778 22-98) (ligand)” showed an EC50 (agonist activity, Aequorin assay) in [2] of 4.4 nM.

Take “recombinant native MIP-3a (from UniProt P78556 27-96) (ligand)”: in [8], the EC50 (agonist activity, Aequorin assay) worked out at 1 nM.

Consider “recombinant native MIP-3b (from UniProt Q99731 22-98) (ligand)”, for which, in assay [9], the EC50 (agonist activity, Aequorin assay) is 1.6 nM.

“recombinant native TARC (from UniProt Q92583 24-94) (ligand)”: the EC50 (agonist activity, Aequorin assay) in [6] turned out to be 2.6 nM.

As for “recombinant native TECK (from UniProt O15444 24-150) (ligand)”, the EC50 (agonist activity, Aequorin assay) in [10] and in [11] was 67.9 nM each time.

For the substance “recombinant native eotaxin (from UniProt P51671 24-97) (ligand)”, in assay [12], the EC50 (agonist, Aequorin assay) came out at 10.7 nM.
